These molecules were tested on BxPC3 cells (assay: Secondary ADC cell killing assay (antibody + anti-human Fc nanobody conjugated to SC236) on BxPC3). Settings: Table 17; nanobody-SC236 20 nM, 120 hrs.
Assay type: cell-based
Description: The internalization ability of the lead antibodies was evaluated by an ADC cell killing assay on Tissue Factor positive BxPC3 cells. A total of 625 cells in a volume of 25 μL were seeded in each well of a 384-well flat bottom white polystyrene plate. Lead antibodies were formulated at 4-fold starting concentration in the cell culture medium and filtered through MultiScreenHTS 96-Well Filter Plates (Millipore; Billerica, Massachusetts). 12.5 μL of antibody was added into each treatment well, and 12.5 μL of anti-human Fc nanobody conjugated to SC236 was then added into each well at a fixed final concentration of 20 nM. Assay plates were cultured at 37° C. in a CO2 incubator for 120 hrs before assay. For cell viability measurement, 30 μL of Cell Titer-Glo® reagent (Promega Corp. Madison, WI) was added into each well, and plates were processed as per product instructions. Relative luminescence was measured on an ENVISION® plate reader (Perkin-Elmer; Waltham, MA). Relative luminescence readings were converted to percent viability using untreated cells as controls. Data was fitted with non-linear regression analysis, using a log (inhibitor) vs. response-variable slope, 4 parameter fit with GraphPad Prism (GraphPad v 5.0, Software; San Diego, California).

| Molecule | BxPC3 Cell Killing Span (%) | EC50 |
| --- | --- | --- |
| SRP2901-B05 (antibody, V domains shown) VH: MQVQVQESGPGLVKPPGTLSLTCAVSGFSLSYYGVSWVRQPPGKGLEWIGTIDSSGRTYYNPSLKSRVTISNDNAPNTVSLKLSSVTAADTAVYYCARDFYGWNSGALDIWGQGTLVTVSS VL: MDLQLTQSPSTLSASVGDRVTITCRASQSVYSNKYLSWYQQKPGKAPKLLIYKASTLASGVPSRFSGSGSGTEFTLTISSLQPDDFATYYCAAAYSDDSDTAFGQGTKVEIK | 84% | 0.059 nM |
| SRP2901-E03 (antibody, V domains shown) VH: MEVQLVESGGGLVQPGGSLRLSCAASGFSISSYDMSWVRQAPGKGLEWIGIIGSNGRTYYPDSVKGRFTISRDNSKNTVTLQMNSLRAEDTAVYYCARGLYDGTGNIWGQGTLVTVSS VL: MELVMTQSPPTLSLSPGERVTLSCRASQSVYGNNWLSWYQQKPGQAPRLLIYGASKLATSIPARFSGSGSGTQFTLTISSLQPEDFAVYYCQGTYYSGDWYFAFGQGTKVEIK | 92.4% | 0.166 nM |
| SRP2901-F01 (antibody, V domains shown) VH: MQVQVVESGGGLVKPGGSLRLSCAASGFSISSYDMSWIRQAPGKGLEWIGIIGSNGRTYYADSVKGRFTISRNTNENTVYLQMNSLRAEDTAVYYCARGLYDGTGNIWGQGTLVTVSS VL: MDIQMTQSPSSLSASVGDRVTITCQASQSVYGNNWLSWYQQKPGKAPKLLIYGASKLASGVPSRFSGSGSGTDFTLTISSLQPEDFATYYCQGTYYSGDWYFAFGGGTKVEIK | 87% | 0.364 nM |
| SRP2901-D03 (antibody, V domains shown) VH: MEVQLVESGGGLVQPGGSLRLSCAASGFSISSYDMSWVRQAPGKGLEWIGIIGSNGRTYYPDSVKGRFTISRDNSKNTVTLQMNSLRAEDTAVYYCARGLYDGTGNIWGQGTLVTVSS VL: MDLQMTQSPSSLSASVGDRVTITCRASQSVYGNNWLSWYQQKPGKAPKLLIYGASKLASGVPSRFSGSGSGTQFTLTISSLQPEDFATYYCQGTYYSGDWYFAFGQGTKVEIK | 77.4% | 0.184 nM |
